This is an account of results in US20250296960A1, “PEPTIDE COMPOSITIONS AND METHODS OF USE THEREOF” (priority 2022, published 2025).

Numbered stars: 1 amine (or outer) side, 2 acyl side, 3 side chain; on linkers, the order of the positions; unused ones are H or OH. Square brackets hold non-standard residues; d marks the D form. Primed or numbered codes have the meaning given here. Side chains are listed from the residue outwards. Ends that are not written are not given here. * marks the point of attachment. C18″ = C18 fatty acid moiety (of 2OEG-γGlu-C18, K*); Biotin = O=C1N[C@H]2[C@H](CS[C@H]2CCCCC(=O)*)N1; γGlu = O=C(O)[C@H](CCC(=O)[*:2])N[*:1]; AEEA = NCCOCCOCC(=O)O; Aib = CC(C)(N)C(=O)O

T1: human glucose-dependent insulinotropic polypeptide receptor (GIPR), expressed on CHO-K1 cells (human, UniProt P48546 22-466)
T1 sequence (looked up): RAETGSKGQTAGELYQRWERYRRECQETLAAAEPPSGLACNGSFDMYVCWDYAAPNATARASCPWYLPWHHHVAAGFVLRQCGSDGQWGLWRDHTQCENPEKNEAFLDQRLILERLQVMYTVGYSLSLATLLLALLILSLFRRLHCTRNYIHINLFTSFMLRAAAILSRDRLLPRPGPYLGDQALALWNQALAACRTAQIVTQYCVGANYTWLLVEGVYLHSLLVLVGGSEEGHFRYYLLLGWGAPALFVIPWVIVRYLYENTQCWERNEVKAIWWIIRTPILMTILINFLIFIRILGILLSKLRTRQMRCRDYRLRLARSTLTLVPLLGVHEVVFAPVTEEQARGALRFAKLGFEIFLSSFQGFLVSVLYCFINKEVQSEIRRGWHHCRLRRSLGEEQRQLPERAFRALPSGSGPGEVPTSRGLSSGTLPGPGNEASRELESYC

B1: SEQ ID NO. 97 (peptide)
peptide: Y[Aib]QGTFTSDYSK([AEEA-AEEA-γGlu-C18])YLDYMMQRDFVK(Biotin)WLLEGGPSSGAPPPS
modifications: ends and bridges not checked
B2: Peptide No. 5-1F (peptide)
peptide: Y[Aib]QGTFTSDYSKYLDYK([AEEA-AEEA-γGlu-C18″])MARDFVQWLIEGGPSSGAPPPS-NH2
B3: Peptide No. 5-2 (peptide)
peptide: Y[Aib]QGTFTSDYSKYLDYMMQRDFVQWLIEGGPSSGAPPPSC-NH2
B4: Peptide No. 5-1D (peptide)
peptide: Y[Aib]QGTFTSDYSK([AEEA-AEEA-γGlu-C18″])YLDYMMARDFVQWLIEGGPSSGAPPPS-NH2
B5: Peptide No. 5-2D (peptide)
peptide: Y[Aib]QGTFTSDYSK([AEEA-AEEA-γGlu-C18″])YLDYMMQRDFVQWLIEGGPSSGAPPPS-NH2
B6: Peptide No. 5D (peptide)
peptide: H[Aib]QGTFTSDYSK([AEEA-AEEA-γGlu-C18″])YLDYMMARDFVQWLIEGGPSSGAPPPS-NH2
B7: Peptide No. 5-1 (peptide)
peptide: Y[Aib]QGTFTSDYSKYLDYMMARDFVQWLIEGGPSSGAPPPSC-NH2
B8: Peptide No. 5-5D (peptide)
peptide: H[Aib]QGTFTSDYSK([AEEA-AEEA-γGlu-C18″])LLDYMMQRDFVQWLLEGGPSSGAPPPS-NH2
B9: Peptide No. 5-1E (peptide)
peptide: Y[Aib]QGTFTSDK([AEEA-AEEA-γGlu-C18″])SKYLDYMMARDFVQWLIEGGPSSGAPPPS-NH2
B10: Peptide No. 5-3 (peptide)
peptide: Y[Aib]QGTFTSDYSKLLDYMMQRDFVQWLLEGGPSSGAPPPSC-NH2
B11: Peptide No. 5-5 (peptide)
peptide: H[Aib]QGTFTSDYSKLLDYMMQRDFVQWLLEGGPSSGAPPPSC-NH2

The first test addresses T1, human glucose-dependent insulinotropic …. The experiment in a line: cell-based or functional assay.
Consider B1, for which the “Ratio vs. GLP-1R” value turned out to be 117 and the “Relative % to native ligand” value was determined as 123%.

In another test the target is T2, human glucagon receptor (GCGR), expressed on CHO-K1 cells (human, UniProt P47871 26-477). The experiment in a line: cell-based or functional assay.
T2 sequence (P47871 26-477): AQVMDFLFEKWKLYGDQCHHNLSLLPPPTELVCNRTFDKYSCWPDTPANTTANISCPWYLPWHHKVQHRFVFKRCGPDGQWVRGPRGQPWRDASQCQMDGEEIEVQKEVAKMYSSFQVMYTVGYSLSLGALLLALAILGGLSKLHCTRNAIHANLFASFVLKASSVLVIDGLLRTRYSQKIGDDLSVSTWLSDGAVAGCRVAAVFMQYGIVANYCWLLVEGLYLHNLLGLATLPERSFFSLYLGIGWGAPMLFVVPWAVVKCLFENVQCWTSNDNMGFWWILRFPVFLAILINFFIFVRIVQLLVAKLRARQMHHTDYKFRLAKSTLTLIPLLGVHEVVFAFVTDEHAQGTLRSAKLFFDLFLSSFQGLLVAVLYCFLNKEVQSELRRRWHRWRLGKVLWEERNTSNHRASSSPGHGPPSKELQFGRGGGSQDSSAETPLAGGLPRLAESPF
As for B1, the “Ratio vs. GLP-1R” value worked out at 28 and the “Relative % to native ligand” value is 30%.

For a further test, the target named is T3, human GLP-1 receptor (GLP-1R), expressed on CHO-K1 cells (human, UniProt P43220 24-463). The experiment in a line: cell-based or functional assay.
As to B1, the “Ratio vs. GLP-1R” value came out at 100 and the “Relative % to native ligand” value was determined as 106%.

Another test deals with T1, human glucose-dependent insulinotropic …. As to the kind of experiment: cell-based or functional assay. The source holds these as a separate data set.
In the case of B2, the “Ratio vs. GLP-1R” value came to 3.
As for B3, the “Ratio vs. GLP-1R” value stood at 149.
Take B4: the “Ratio vs. GLP-1R” value turned out to be 27.
As for B5, the “Ratio vs. GLP-1R” value worked out at 54.
As for B6, the “Ratio vs. GLP-1R” value is 8.
Same read-out and setting: for B7 the value was 11; for B8, 70; for B9, 1.
In the case of B10, the “Ratio vs. GLP-1R” value is 1120.
Turning to B11, the “Ratio vs. GLP-1R” value turned out to be 31.

The next test addresses T2, human glucagon receptor (GCGR), …. The experiment in a line: cell-based or functional assay. This is another data set of the same source.
As for B2, the “Ratio vs. GLP-1R” value came out at 8250.
Take B3: the “Ratio vs. GLP-1R” value came out at 18.
Take B4: the “Ratio vs. GLP-1R” value was found to be 36.
As to B5, the “Ratio vs. GLP-1R” value came to 1.
Take B6: the “Ratio vs. GLP-1R” value is 204.
Regarding B7, the “Ratio vs. GLP-1R” value amounted to 5660.
Same read-out and setting: then B8, with 1; and B9, with 130.
As for B10, the “Ratio vs. GLP-1R” value was 152.
As to B11, the “Ratio vs. GLP-1R” value is 15.

In another test the target is T3, human GLP-1 receptor (GLP-1R), …. As to the kind of experiment: cell-based or functional assay. The source holds these as a separate data set.
Take B2: the “Ratio vs. GLP-1R” value came out at 100.
Regarding B3, the “Ratio vs. GLP-1R” value came to 100.
With B4, the “Ratio vs. GLP-1R” value worked out at 100.
For the molecule B5, the “Ratio vs. GLP-1R” value came out at 100.
As to B6, the “Ratio vs. GLP-1R” value was determined as 100.
Consider B7, for which the “Ratio vs. GLP-1R” value was found to be 100.
As to B8, the “Ratio vs. GLP-1R” value came to 100.
On the same count and under the same terms, then B9, with 100; and B10, with 100; and B11, with 100.

The target of a further test is T1, human glucose-dependent insulinotropic …. As to the kind of experiment: cell-based or functional assay. The source holds these as a separate data set.
B2: the “Relative % to non-lipidated peptide” value turned out to be 14%.
Consider B3, for which the “Relative % to non-lipidated peptide” value is 100%.
Regarding B4, the “Relative % to non-lipidated peptide” value amounted to 323%.
B5: the “Relative % to non-lipidated peptide” value was determined as 13%.
Consider B6, for which the “Relative % to non-lipidated peptide” value was 93%.
Turning to B7, the “Relative % to non-lipidated peptide” value turned out to be 100%.
Take B8: the “Relative % to non-lipidated peptide” value is 40%.
As to B9, the “Relative % to non-lipidated peptide” value amounted to 5%.
Turning to B10, the “Relative % to non-lipidated peptide” value turned out to be 100%.
As for B11, the “Relative % to non-lipidated peptide” value worked out at 100%.

The next test addresses T2, human glucagon receptor (GCGR), …. The experiment in a line: cell-based or functional assay. This is another data set of the same source.
With B2, the “Relative % to non-lipidated peptide” value amounted to 76%.
Still for that read-out and setting: then B3, with 100%; and B4, with 1%; and B5, with 3%.
On to B6, for which the “Relative % to non-lipidated peptide” value was determined as 10%.
As for B7, the “Relative % to non-lipidated peptide” value turned out to be 100%.
On the same count and under the same terms, then B8, with 1%; and B9, with 1%.
As to B10, the “Relative % to non-lipidated peptide” value was 100%.
Take B11: the “Relative % to non-lipidated peptide” value was found to be 100%.

In another test the target is T3, human GLP-1 receptor (GLP-1R), …. As to the kind of experiment: cell-based or functional assay. This is another data set of the same source.
With B2, the “Relative % to non-lipidated peptide” value amounted to 52%.
Turning to B3, the “Relative % to non-lipidated peptide” value amounted to 100%.
For B4, the “Relative % to non-lipidated peptide” value stood at 129%.
Take B5: the “Relative % to non-lipidated peptide” value worked out at 35%.
Regarding B6, the “Relative % to non-lipidated peptide” value turned out to be 6%.
In the case of B7, the “Relative % to non-lipidated peptide” value was determined as 100%.
Consider B8, for which the “Relative % to non-lipidated peptide” value was 18%.
As for B9, the “Relative % to non-lipidated peptide” value amounted to 48%.
With B10, the “Relative % to non-lipidated peptide” value came to 100%.
On to B11, for which the “Relative % to non-lipidated peptide” value turned out to be 100%.

The next test addresses T1, human glucose-dependent insulinotropic …. The experiment in a line: cell-based or functional assay. This is another data set of the same source.
For B2, the “Relative % to native ligand” value stood at 2%.
With B3, the “Relative % to native ligand” value is 738%.
With B4, the “Relative % to native ligand” value was found to be 41%.
As for B5, the “Relative % to native ligand” value was 93%.
As to B6, the “Relative % to native ligand” value is 3%.
Consider B7, for which the “Relative % to native ligand” value turned out to be 13%.
Take B8: the “Relative % to native ligand” value turned out to be 212%.
On to B9, for which the “Relative % to native ligand” value came out at 1%.
The same measure, in the same setting: then B10, with 7120%.
Consider B11, for which the “Relative % to native ligand” value worked out at 526%.

The target of a further test is T2, human glucagon receptor (GCGR), …. As to the kind of experiment: cell-based or functional assay. This is another data set of the same source.
Turning to B2, the “Relative % to native ligand” value is 5030%.
B3: the “Relative % to native ligand” value turned out to be 91%.
B4: the “Relative % to native ligand” value worked out at 55%.
B5: the “Relative % to native ligand” value was 3%.
In the case of B6, the “Relative % to native ligand” value came out at 72%.
With B7, the “Relative % to native ligand” value is 6650%.
B8: the “Relative % to native ligand” value was 2%.
On to B9, for which the “Relative % to native ligand” value came out at 74%.
Turning to B10, the “Relative % to native ligand” value was determined as 969%.
Same read-out and setting: then B11, with 260%.

The target in a further test is T3, human GLP-1 receptor (GLP-1R), …. The experiment in a line: cell-based or functional assay. This is another data set of the same source.
For the molecule B2, the “Relative % to native ligand” value amounted to 61%.
For the molecule B3, the “Relative % to native ligand” value is 495%.
Consider B4, for which the “Relative % to native ligand” value was 151%.
In the case of B5, the “Relative % to native ligand” value came out at 174%.
Consider B6, for which the “Relative % to native ligand” value stood at 35%.
On the same count and under the same terms, for B7 the value was 117%; for B8, 305%; for B9, 57%.
Consider B10, for which the “Relative % to native ligand” value was determined as 638%.
B11: the “Relative % to native ligand” value stood at 1690%.
